The values that follow come from patent US20200317817A1 (XOMA US, published 2020).

Test [1] deals with T1, human PTH1R overexpressed on CHO cells (human, UniProt Q03431 27-593).
T1 sequence (looked up): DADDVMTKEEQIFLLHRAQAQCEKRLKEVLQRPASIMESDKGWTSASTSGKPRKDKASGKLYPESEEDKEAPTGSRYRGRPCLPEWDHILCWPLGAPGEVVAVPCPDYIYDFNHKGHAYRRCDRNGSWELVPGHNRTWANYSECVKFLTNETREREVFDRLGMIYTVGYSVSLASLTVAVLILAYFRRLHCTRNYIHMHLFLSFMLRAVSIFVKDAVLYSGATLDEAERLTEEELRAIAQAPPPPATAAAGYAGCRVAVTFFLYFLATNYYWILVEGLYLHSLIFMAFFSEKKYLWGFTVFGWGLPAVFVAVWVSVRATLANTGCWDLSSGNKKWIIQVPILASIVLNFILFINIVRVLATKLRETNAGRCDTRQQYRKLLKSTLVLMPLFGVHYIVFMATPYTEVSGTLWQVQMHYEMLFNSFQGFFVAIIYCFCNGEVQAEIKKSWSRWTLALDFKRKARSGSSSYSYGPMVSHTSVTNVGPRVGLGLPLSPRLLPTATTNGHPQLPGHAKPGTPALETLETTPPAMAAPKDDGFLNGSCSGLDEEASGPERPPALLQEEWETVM
The test can be described thus: cell-based or functional assay.

Test [2] addresses T2, rat PTH1R on UMR106 cells (rat, UniProt P25961 27-591).
T2 sequence (looked up): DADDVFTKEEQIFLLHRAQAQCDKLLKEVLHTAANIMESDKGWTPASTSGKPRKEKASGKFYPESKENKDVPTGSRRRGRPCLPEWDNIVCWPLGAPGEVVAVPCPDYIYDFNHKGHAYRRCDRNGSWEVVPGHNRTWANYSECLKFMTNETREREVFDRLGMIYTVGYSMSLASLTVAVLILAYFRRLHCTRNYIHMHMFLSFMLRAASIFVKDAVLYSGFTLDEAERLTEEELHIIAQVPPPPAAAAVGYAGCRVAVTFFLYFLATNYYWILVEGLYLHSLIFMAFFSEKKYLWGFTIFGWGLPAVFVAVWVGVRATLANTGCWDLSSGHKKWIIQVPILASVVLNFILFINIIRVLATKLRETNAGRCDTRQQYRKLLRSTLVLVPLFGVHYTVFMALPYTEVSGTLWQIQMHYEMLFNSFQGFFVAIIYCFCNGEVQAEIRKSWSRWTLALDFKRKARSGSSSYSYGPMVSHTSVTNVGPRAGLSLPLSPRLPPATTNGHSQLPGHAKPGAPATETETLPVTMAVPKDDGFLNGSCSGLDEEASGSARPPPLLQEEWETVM
The test can be described thus: cell-based or functional assay.

The target in test [3] is T3, human PTH1R on Saos-2 cells (endogenous) (human, UniProt Q03431 27-593).
T3 sequence (looked up): T1 sequence (looked up)
The test can be described thus: cell-based or functional assay.

The target of test [4] is T1, human PTH1R overexpressed on CHO cells. Description: flow cytometry on CHO cells, antibody alone. As for the experimental part: (§1) To characterize antibody binding to PTH1R, cells were labeled with either CellTrace™ CFSE or CellTrace™ Violet. Unlabeled CHOK1 parent, CHO human PTH1R labeled with CellTrace™CFSE, and CHO mouse PTH1R labeled with CellTrace™Violet were pooled together and stained with increasing concentrations of antibody. Antibodies were incubated for 24 hr at 4° C. followed by two washes with FACS Buffer (0.5% BSA, 0.1% NaN3 in DPBS). Cells were then incubated with Allophycocyanin (APC) AffiniPure F(ab′)₂ Fragment Goat Anti-Human IgG (H+L) (Jackson ImmunoResearch, West Grove, Pa.) for 20 minutes at 4° C. Followed by two washes, cells were resuspended in FACS Buffer. Samples were acquired using BD Cytometer (BD Biosciences, San Jose, Calif.) and data were analyzed using FlowJo (FlowJo, LLC, Ashland, Oreg.) and Prism (GraphPad Software, La Jolla, Calif.).
A general note: A flow cytometer gives signals particle by particle.

Test [5] addresses T4, mouse PTH1R overexpressed on CHO cells (mouse, UniProt P41593 27-591).
T4 construct: whole, on cells; also called CHO mouse PTH1R; CHO Mouse PTHR
T4 sequence (looked up): T2 sequence (looked up) with S58P, P497L, T518I, T520N, L523I, A528T
The test can be described thus: flow cytometry on CHO cells, antibody alone. As for the experimental part: as §1

In test [6] the target is T1, human PTH1R overexpressed on CHO cells. The test can be described thus: flow cytometry on CHO cells, with 3 uM PTHrP as competitor. How it is done:
as §1

For test [7], the target named is T4, mouse PTH1R overexpressed on CHO cells. The description is as above. How it is done:
as §1

The target of test [8] is T3, human PTH1R on Saos-2 cells (endogenous). The test can be described thus: cell-based or functional assay. The source holds these as a separate data set.
For test [9], the target named is T5, human PTH1R overexpressed on Saos-2 cells (human, UniProt Q03431 27-593).
T5 construct: whole, on cells; also called Saos-2 human PTH1R cells
T5 sequence (looked up): T1 sequence (looked up)
The test can be described thus: flow cytometry on Saos-2 cells overexpressing human PTH1R, in the presence of 1 uM PTH, PE anti-human IgG.

Test [10] concerns the target T5, human PTH1R overexpressed on Saos-2 …. Description: flow cytometry on Saos-2 cells overexpressing human PTH1R, in the presence of 3 uM PTHrP, PE anti-human IgG. The source says: Antibody binding was detected with R-Phycoerythrin anti-human IgG.

Where a chain is given by its changes, count along the chain named.

B1: XPA.85.341 (antibody, V domains shown)
VH: EVQLVETGGGVVRPGGSLRLSCAASGFTFSSSAMSWVRQTPGKELQWVSAITPGGEGTYYADVVKGRFTISRDNSKDTLYLQMDSLRAEDTAVYYCARDLYGSYGDAFDIWGQGTLVTVSS
VL: SYELTQPSSVSVSPGQTASITCSGDKLGEKYASWYQQKPGQSPVLVMFEDTKRPSGIPERFSGSNSGNTATLTISGTQAEDEADYYCQAWDSSWVFGGGTQLTVL
notes: Light-chain-shuffled variant of XPA.85.017
Turning to B1, the “EC50 of PTH(1-34), cAMP assay, with 267 nM IgG” value (“EC50 of PTH(1-34), cAMP assay” for short) in test [1] was 0.404 nM; in [2] it was 13.7 nM; in test [3], 38.1 nM. Also, the “EC50 of PTHrP(1-34), cAMP assay, with 267 nM IgG” value (“EC50 of PTHrP(1-34), cAMP assay” below) in test [3] is 63 nM. Moreover, the EC50 – broadly, the midpoint of the concentration-response curve – in test [4] was 0.196 nM; in test [5], 0.337 nM; in [6], 1.11 nM; in [7], 14.5 nM.

B2: XPA.85.287 (antibody, V domains shown)
VH: B1 VH
VL: SYVLTQPPSVSVAPGQTARITCSGDKLGDRYVSWYQQKPGQSPVLVMFEDTGRPAGIPERFSGSNSGNTATLTISGTQAEDEADYYCQAWGTSWVFGGGTQLTVL
notes: also called Ab287
For the molecule B2, the “fold shift of the PTH (1-34) dose response, M-CSF secretion by Saos-2 cells, 40 µg/mL antibody” value in test [8] was about 7 fold. Moreover, the “EC50 of PTH(1-34), cAMP assay” value was determined as 0.908 nM in test [1], 66.7 nM in test [2] and 78.6 nM in test [3]. Further, the “EC50 of PTHrP(1-34), cAMP assay” value in [1] was found to be 52.7 nM; in test [2], 11.6 nM; in test [3] it was 62.2 nM. Also, the “fold-shift in PTH(1-34) EC50 vs vehicle only, cAMP assay” value in [1] is 29 fold; in test [2], over 100 fold; in [3], over 100 fold. The “fold-shift in PTHrP(1-34) EC50 vs vehicle only, cAMP assay” value in test [1] was over 100 fold; in test [2], 35 fold; in test [3], 89 fold. In addition, the EC50 was found to be 0.0909 nM in [4], 0.281 nM in test [5], 0.304 nM in test [6] and 1.51 nM in [7].

B3: XPA.85.339 (antibody, V domains shown)
VH: B1 VH
VL: SYELTQPPSVSVAPGQTATITCSGDRLGDKFISWYQQKPGQSPLLVIFEDNERPSRIPERFSGSNSGNSATLTISGTQAVDEADYYCQAWDSSWVFGGGTQLTVL
notes: as for B1
For the molecule B3, the “EC50 of PTH(1-34), cAMP assay” value in test [1] was 0.613 nM; in test [2] it was 7.9 nM; in test [3], 24.8 nM. Besides, the “EC50 of PTHrP(1-34), cAMP assay” value in test [2] was 3.48 nM; in test [3], 31.4 nM. Besides, the EC50 is 0.0984 nM in [4], 0.258 nM in test [5], 0.479 nM in [6] and 18.7 nM in test [7].

B4: XPA.85.329 (antibody, V domains shown)
VH: QMQLVQSGAEVKKPGSSVKVSCKASGGTFSSYAISWVRQAPGQGLEWMGGIIPIFGTANYAQKFQGRVTITADESTSTAYMELSSLRSEDTAVYYCARGYVVARLWGQGTLVTVSS
VL: DIVMTQTPLSLSVTPGQPASISCKSSQSLLHIDGLTYLYWYLQKPGQPPQLLIYEVSHRFSGVSDKFSGSGSGTDFTLTISRVEAEDVGVYYCMQSLHLPITFGQGTRLEIK
notes: IgG; also called Ab329; XPA.329
Take B4: in test [8], the “EC50 of antibody, neutralization of M-CSF production induced by 12.5 nM PTHrP (1-36)” value amounted to 4 nM and the “fold shift of the PTHrP (1-36) dose response, M-CSF secretion by Saos-2 cells, 40 µg/mL antibody” value is over 200 fold. In test [9], the 50% effective concentration (EC50) stood at 35.3 nM. Further, in [10], the EC50 was determined as 656 nM.
